In the supplement of paper PMC9112550, “Optimization of the antimicrobial peptide Bac7 by deep mutational scanning” (BMC Biology, 2022):

System: Escherichia coli TOP10
Experiment: shrunken log2 fold change of peptide-encoding DNA abundance (4.5 h post-induction vs induction); higher = less antimicrobial activity (less host growth inhibition)
Conditions: time post-induction: 4.5 h; library: site-saturation at positions 5, 18, 19, 20
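Further: peptides expressed intracellularly from a pBAD plasmid library in pooled LB shake-flask culture, induced with 0.3% L-arabinose, DNA abundance read by NGS, three biological replicates, DESeq2 with apeglm shrinkage.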

Sequence	shrunken log2 fold change
RRIRRRPPRLPRPRPRPQKPPRP	-0.138
RRIRSRPPRLPRPRPRPFGMPRP	-0.25
RRIRRRPPRLPRPRPRPQATPRP	0.233
RRIRERPPRLPRPRPRPFWTPRP	-0.24
RRIRVRPPRLPRPRPRPVADPRP	0.181
RRIRPRPPRLPRPRPRPKAHPRP	0.0759
RRIRTRPPRLPRPRPRPSYEPRP	-0.352
RRIRTRPPRLPRPRPRPWMMPRP	0.0505
RRIRLRPPRLPRPRPRPKEYPRP	-0.567
RRIRRRPPRLPRPRPRPCLEPRP	0.11
RRIRNRPPRLPRPRPRPCHLPRP	-0.146
RRIRRRPPRLPRPRPRPGKKPRP	0.0542
RRIRSRPPRLPRPRPRPQEKPRP	-0.393
RRIRIRPPRLPRPRPRPPCGPRP	-0.239
RRIRCRPPRLPRPRPRPKPTPRP	0.128
RRIRQRPPRLPRPRPRPKFKPRP	0.0538
RRIRERPPRLPRPRPRPFAKPRP	-0.386
RRIRRRPPRLPRPRPRPQPFPRP	-0.0201
RRIRVRPPRLPRPRPRPNCGPRP	0.0742
RRIRERPPRLPRPRPRPYPCPRP	-0.00884
RRIRRRPPRLPRPRPRPQEEPRP	0.0332
RRIRARPPRLPRPRPRPFRIPRP	-0.169
RRIRDRPPRLPRPRPRPVMDPRP	0.114
RRIRIRPPRLPRPRPRPEQTPRP	0.0649
RRIRWRPPRLPRPRPRPGRPPRP	0.42

Sequence	shrunken log2 fold change
RRIRMRPPRLPRPRPRPPTEPRP	0.413
RRIRGRPPRLPRPRPRPDRCPRP	0.286
RRIRDRPPRLPRPRPRPTEGPRP	-0.0161
RRIRGRPPRLPRPRPRPGDIPRP	0.143
RRIRPRPPRLPRPRPRPNDLPRP	-0.111
RRIRFRPPRLPRPRPRPMQHPRP	0.0148
RRIRHRPPRLPRPRPRPFWWPRP	0.0369
RRIRGRPPRLPRPRPRPVRYPRP	0.428
RRIRLRPPRLPRPRPRPKPVPRP	0.165
RRIRRRPPRLPRPRPRPTQNPRP	1.03
RRIRTRPPRLPRPRPRPQDEPRP	-0.152
RRIRIRPPRLPRPRPRPQNYPRP	-0.428
RRIRQRPPRLPRPRPRPLESPRP	-0.0344
RRIRARPPRLPRPRPRPIYFPRP	-0.0784
RRIRKRPPRLPRPRPRPQHKPRP	0.196
RRIRKRPPRLPRPRPRPATTPRP	0.407
RRIRYRPPRLPRPRPRPETIPRP	-0.495
RRIRPRPPRLPRPRPRPDIQPRP	-0.222
RRIRTRPPRLPRPRPRPSAVPRP	-0.0697
RRIRARPPRLPRPRPRPWGAPRP	0.401
RRIRCRPPRLPRPRPRPQKDPRP	-0.202
RRIRPRPPRLPRPRPRPEMSPRP	0.147
RRIRMRPPRLPRPRPRPKDNPRP	1.43
RRIRSRPPRLPRPRPRPERGPRP	-0.0603
RRIRWRPPRLPRPRPRPANTPRP	-0.0364

Sequence	shrunken log2 fold change
RRIRFRPPRLPRPRPRPWSLPRP	-0.529
RRIRERPPRLPRPRPRPPFYPRP	-0.367
RRIRGRPPRLPRPRPRPQPNPRP	0.679
RRIRCRPPRLPRPRPRPVESPRP	-0.0217
RRIRDRPPRLPRPRPRPCALPRP	-0.0616
RRIRVRPPRLPRPRPRPYWHPRP	-0.636
RRIRTRPPRLPRPRPRPWMSPRP	0.00487
RRIRPRPPRLPRPRPRPNKWPRP	-0.232
RRIRCRPPRLPRPRPRPWFDPRP	-0.496
RRIRHRPPRLPRPRPRPHEFPRP	0.0248
RRIRLRPPRLPRPRPRPLCHPRP	-0.253
RRIRIRPPRLPRPRPRPASSPRP	0.093
RRIRYRPPRLPRPRPRPGKSPRP	0.0131
RRIRPRPPRLPRPRPRPTRFPRP	0.41
RRIRLRPPRLPRPRPRPCPIPRP	-0.335
RRIRGRPPRLPRPRPRPVAKPRP	0.961
RRIRPRPPRLPRPRPRPKLMPRP	0.121
RRIRQRPPRLPRPRPRPLGEPRP	0.0549
RRIRWRPPRLPRPRPRPPKMPRP	0.172
RRIRSRPPRLPRPRPRPWDFPRP	-0.224
RRIRFRPPRLPRPRPRPDQGPRP	-0.167
RRIRKRPPRLPRPRPRPHYYPRP	-0.0852
RRIRWRPPRLPRPRPRPEWFPRP	0.395
RRIRWRPPRLPRPRPRPDYAPRP	-0.0174
RRIRLRPPRLPRPRPRPKTKPRP	-0.021

Sequence	shrunken log2 fold change
RRIRKRPPRLPRPRPRPQCDPRP	0.279
RRIRARPPRLPRPRPRPTIDPRP	0.301
RRIRGRPPRLPRPRPRPMDNPRP	0.12
RRIRPRPPRLPRPRPRPFWPPRP	0.199
RRIRTRPPRLPRPRPRPCRHPRP	-0.101
RRIRSRPPRLPRPRPRPSNCPRP	-0.525
RRIRYRPPRLPRPRPRPLSDPRP	-0.108
RRIRVRPPRLPRPRPRPNVQPRP	-0.0734
RRIRRRPPRLPRPRPRPIAHPRP	-0.0355
RRIRFRPPRLPRPRPRPQFCPRP	-0.0625
RRIRSRPPRLPRPRPRPEDFPRP	-0.149
RRIRGRPPRLPRPRPRPESMPRP	1.19
RRIRIRPPRLPRPRPRPGILPRP	-0.128
RRIRTRPPRLPRPRPRPGVVPRP	0.0177
RRIRNRPPRLPRPRPRPQVMPRP	0.06
RRIRPRPPRLPRPRPRPPADPRP	0.593
RRIRPRPPRLPRPRPRPTNEPRP	0.0205
RRIRMRPPRLPRPRPRPFCMPRP	-0.33
RRIRHRPPRLPRPRPRPGKPPRP	-0.00366
RRIRERPPRLPRPRPRPCFYPRP	-0.43
RRIRQRPPRLPRPRPRPEYRPRP	0.0706
RRIRDRPPRLPRPRPRPPKNPRP	0.344
RRIRLRPPRLPRPRPRPLDDPRP	-0.144
RRIRCRPPRLPRPRPRPIFYPRP	-0.32
RRIRVRPPRLPRPRPRPENTPRP	-0.0389

Sequence	shrunken log2 fold change
RRIRHRPPRLPRPRPRPGMQPRP	0.0824
RRIRYRPPRLPRPRPRPARGPRP	0.515
RRIRNRPPRLPRPRPRPLGNPRP	-0.248
RRIRERPPRLPRPRPRPRIHPRP	-0.737
RRIRQRPPRLPRPRPRPCSKPRP	-0.18
RRIRTRPPRLPRPRPRPYLTPRP	-0.171
RRIRCRPPRLPRPRPRPINAPRP	0.695
RRIRPRPPRLPRPRPRPANCPRP	0.0263
RRIRMRPPRLPRPRPRPAFWPRP	0.963
RRIRDRPPRLPRPRPRPSEHPRP	0.12
RRIRSRPPRLPRPRPRPLGCPRP	0.285
RRIRARPPRLPRPRPRPVMPPRP	0.457
RRIRKRPPRLPRPRPRPENVPRP	-0.00931
RRIRGRPPRLPRPRPRPGEEPRP	0.965
RRIRFRPPRLPRPRPRPTKTPRP	-0.0652
RRIRCRPPRLPRPRPRPAWCPRP	0.128
RRIRARPPRLPRPRPRPKWQPRP	0.0511
RRIRKRPPRLPRPRPRPMVLPRP	-0.191
RRIRRRPPRLPRPRPRPWPIPRP	0.0239
RRIRPRPPRLPRPRPRPMDCPRP	-0.00833
RRIRFRPPRLPRPRPRPSRRPRP	-0.0576
RRIRLRPPRLPRPRPRPCPNPRP	0.0236
RRIRGRPPRLPRPRPRPSKRPRP	0.231
RRIRQRPPRLPRPRPRPVPVPRP	-0.228
RRIRNRPPRLPRPRPRPHPTPRP	-0.0363
